Measurements as given in the RNAGym collection of RNA variant scans (doi:10.1021/acssynbio.7b00057).

B1: Pistol ribozyme (parent)
chain: GGGUCGUUGUUCCAUAAUCGCGUGGAUAUGGCACGCAAGUUUCUACCGGGCACCGUAAAUGUCCGACUGGAGCCGUUCGGGCGGCUAUAAACAGACCUCAGGCCCGAAGCGUGGCGGCACCUGCCGCCGGUGGUAAAAAAGAUCGGAAGAGCACACGUCU

Variants of: B1
Test: aptazyme ON/OFF ratio, guanine; higher = stronger switching; co-transcriptional cleavage with and without guanine

Variant	aptazyme ON/OFF ratio
GGGUCGCUUGUGCAUAAUCGCGUGGAUAUGGCACGCAAGUUUCUACCGGGCACCGUAAAUGUCCGACUGGAGCCGUUCGGGCGGCUAUAAACAGACCUCAGGCCCGAAGCGUGGCGGCACCUGCCGCCGGUGGUAAAAAAGAUCGGAAGAGCACACGUCU [U7C G9U U10G C12G]	1.12
GGGUCGCUUGUUCAUAAUCGCGUGGAUAUGGCACGCAAGUUUCUACCGGGCACCGUAAAUGUCCGACUGGAGCCGUUCGGGCGGCUAUAAACAGACCUCAGGCCCGAAGCGUGGCGGCACCUGCCGCCGGUGGUAAAAAAGAUCGGAAGAGCACACGUCU [U7C G9U U10G C12U]	1.39
GGGUCGCUUGUACAUAAUCGCGUGGAUAUGGCACGCAAGUUUCUACCGGGCACCGUAAAUGUCCGACUGGAGCCGUUCGGGCGGCUAUAAACAGACCUCAGGCCCGAAGCGUGGCGGCACCUGCCGCCGGUGGUAAAAAAGAUCGGAAGAGCACACGUCU [U7C G9U U10G C12A]	1.21
GGGUCGCUUGAACAUAAUCGCGUGGAUAUGGCACGCAAGUUUCUACCGGGCACCGUAAAUGUCCGACUGGAGCCGUUCGGGCGGCUAUAAACAGACCUCAGGCCCGAAGCGUGGCGGCACCUGCCGCCGGUGGUAAAAAAGAUCGGAAGAGCACACGUCU [U7C G9U U10G U11A C12A]	1.2
GGGUCGCUUGUGAAUAAUCGCGUGGAUAUGGCACGCAAGUUUCUACCGGGCACCGUAAAUGUCCGACUGGAGCCGUUCGGGCGGCUAUAAACAGACCUCAGGCCCGAAGCGUGGCGGCACCUGCCGCCGGUGGUAAAAAAGAUCGGAAGAGCACACGUCU [U7C G9U U10G C12G C13A]	1.2
GGGUCGCUUGUGGAUAAUCGCGUGGAUAUGGCACGCAAGUUUCUACCGGGCACCGUAAAUGUCCGACUGGAGCCGUUCGGGCGGCUAUAAACAGACCUCAGGCCCGAAGCGUGGCGGCACCUGCCGCCGGUGGUAAAAAAGAUCGGAAGAGCACACGUCU [U7C G9U U10G C12G C13G]	1.12
GGGUCGCUUGUGUAUAAUCGCGUGGAUAUGGCACGCAAGUUUCUACCGGGCACCGUAAAUGUCCGACUGGAGCCGUUCGGGCGGCUAUAAACAGACCUCAGGCCCGAAGCGUGGCGGCACCUGCCGCCGGUGGUAAAAAAGAUCGGAAGAGCACACGUCU [U7C G9U U10G C12G C13U]	1.11
GGGUCGCUUCGAAAUAAUCGCGUGGAUAUGGCACGCAAGUUUCUACCGGGCACCGUAAAUGUCCGACUGGAGCCGUUCGGGCGGCUAUAAACAGACCUCAGGCCCGAAGCGUGGCGGCACCUGCCGCCGGUGGUAAAAAAGAUCGGAAGAGCACACGUCU [U7C G9U U10C U11G C12A C13A]	1.11
GGGUCGCUUCGAUAUAAUCGCGUGGAUAUGGCACGCAAGUUUCUACCGGGCACCGUAAAUGUCCGACUGGAGCCGUUCGGGCGGCUAUAAACAGACCUCAGGCCCGAAGCGUGGCGGCACCUGCCGCCGGUGGUAAAAAAGAUCGGAAGAGCACACGUCU [U7C G9U U10C U11G C12A C13U]	1.11
GGGUCGCUUCGAGAUAAUCGCGUGGAUAUGGCACGCAAGUUUCUACCGGGCACCGUAAAUGUCCGACUGGAGCCGUUCGGGCGGCUAUAAACAGACCUCAGGCCCGAAGCGUGGCGGCACCUGCCGCCGGUGGUAAAAAAGAUCGGAAGAGCACACGUCU [U7C G9U U10C U11G C12A C13G]	1.1
GGGUCGCUUGAAAAUAAUCGCGUGGAUAUGGCACGCAAGUUUCUACCGGGCACCGUAAAUGUCCGACUGGAGCCGUUCGGGCGGCUAUAAACAGACCUCAGGCCCGAAGCGUGGCGGCACCUGCCGCCGGUGGUAAAAAAGAUCGGAAGAGCACACGUCU [U7C G9U U10G U11A C12A C13A]	1.2
GGGUCGCUUGUCAAUAAUCGCGUGGAUAUGGCACGCAAGUUUCUACCGGGCACCGUAAAUGUCCGACUGGAGCCGUUCGGGCGGCUAUAAACAGACCUCAGGCCCGAAGCGUGGCGGCACCUGCCGCCGGUGGUAAAAAAGAUCGGAAGAGCACACGUCU [U7C G9U U10G C13A]	1.25
GGGUCGCUUGUCUAUAAUCGCGUGGAUAUGGCACGCAAGUUUCUACCGGGCACCGUAAAUGUCCGACUGGAGCCGUUCGGGCGGCUAUAAACAGACCUCAGGCCCGAAGCGUGGCGGCACCUGCCGCCGGUGGUAAAAAAGAUCGGAAGAGCACACGUCU [U7C G9U U10G C13U]	1.37
GGGUCGCUUGUCGAUAAUCGCGUGGAUAUGGCACGCAAGUUUCUACCGGGCACCGUAAAUGUCCGACUGGAGCCGUUCGGGCGGCUAUAAACAGACCUCAGGCCCGAAGCGUGGCGGCACCUGCCGCCGGUGGUAAAAAAGAUCGGAAGAGCACACGUCU [U7C G9U U10G C13G]	1.06
GGGUCGCUUCGGUAUAAUCGCGUGGAUAUGGCACGCAAGUUUCUACCGGGCACCGUAAAUGUCCGACUGGAGCCGUUCGGGCGGCUAUAAACAGACCUCAGGCCCGAAGCGUGGCGGCACCUGCCGCCGGUGGUAAAAAAGAUCGGAAGAGCACACGUCU [U7C G9U U10C U11G C12G C13U]	1.11
GGGUCGCUUCGGAAUAAUCGCGUGGAUAUGGCACGCAAGUUUCUACCGGGCACCGUAAAUGUCCGACUGGAGCCGUUCGGGCGGCUAUAAACAGACCUCAGGCCCGAAGCGUGGCGGCACCUGCCGCCGGUGGUAAAAAAGAUCGGAAGAGCACACGUCU [U7C G9U U10C U11G C12G C13A]	1.1
GGGUCGCUUCGGGAUAAUCGCGUGGAUAUGGCACGCAAGUUUCUACCGGGCACCGUAAAUGUCCGACUGGAGCCGUUCGGGCGGCUAUAAACAGACCUCAGGCCCGAAGCGUGGCGGCACCUGCCGCCGGUGGUAAAAAAGAUCGGAAGAGCACACGUCU [U7C G9U U10C U11G C12G C13G]	1.11
GGGUCGCUUGUAGAUAAUCGCGUGGAUAUGGCACGCAAGUUUCUACCGGGCACCGUAAAUGUCCGACUGGAGCCGUUCGGGCGGCUAUAAACAGACCUCAGGCCCGAAGCGUGGCGGCACCUGCCGCCGGUGGUAAAAAAGAUCGGAAGAGCACACGUCU [U7C G9U U10G C12A C13G]	1.13
